Results reported in patent US20130072665A1.
One block for each binder: values may come before it.

Assays:
[1] = target: cynomolgus monkey PCSK9 (cynomolgus monkey); test: KinExA solution equilibrium
[2] = target: cynomolgus monkey PCSK9 (cynomolgus monkey); test: BIAcore, antibody immobilised, pH 7.4
[3] = target: cynomolgus monkey PCSK9 (cynomolgus monkey); test: BIAcore solution equilibrium, column To Cyno PCSK9
[4] = target: cynomolgus monkey PCSK9 (cynomolgus monkey); test: BIAcore solution equilibrium
[5] = target: cynomolgus monkey PCSK9 (cynomolgus monkey); test: BIAcore solution equilibrium, % free cPCSK9 against [21B12]; third of four curves; cPCSK9 concentration not given
[6] = target: cynomolgus monkey PCSK9 (cynomolgus monkey); test: BIAcore solution equilibrium, % free cPCSK9 against [21B12]; second of four curves; cPCSK9 concentration not given
[7] = target: cynomolgus monkey PCSK9 (cynomolgus monkey); test: BIAcore solution equilibrium, % free cPCSK9 against [21B12]; leftmost of four curves; cPCSK9 concentration not given
[8] = target: cynomolgus monkey PCSK9 (cynomolgus monkey); test: BIAcore solution equilibrium, % free cPCSK9 against [21B12]; rightmost of four curves; cPCSK9 concentration not given

Kd [1]: 0.016 nM
Kd [2]: 0.87 nM
B1: 16F12, anti-PCSK9 huIgG4 (antibody, V domains shown)
VH: QVHLVESGGGVVQPGRSLRLSCAASGFTFNSFGMHWVRQAPGKGLEWVALIWSDGSDEYYADSVKGRFTISRDNSKNTLYLQMNSLRAEDTAVYYCARAIAALYYYYGMDVWGQGTTVTVSS
VL: QSVLTQPPSVSAAPGQKVTISCSGSSSNIGNNFVSWYQQLPGTAPKLLIYDYNKRPSGIPDRFSGSKSGTSATLGITGLQTGDEADYYCGTWDSSLSAYVFGTGTRVTVLQ

Kd [3]: 0.12 nM
B2: 23B5 (antibody, V domains shown)
VH: EVQLLESGGGLVQPGGSLRLSCAASGFTFSSYAMNWVRQAPGKGLEWVSTISGSGDNTYYADSVKGRFTISRDNSKNTLYLQMNSLRAEDTAVYYCAKKFVLMVYAMLDYWGQGTLVTVSS
VL: DILMTQSPSSLSASVGDRVTITCRASQSISSYLNWYQQKPGKAPKVLIYAASSLQSGVPSRFSGSGSGTDFTLTINSLQPEDFATYYCQQSYSSPITFGQGTRLEIK

Kd [4]: 0.011 nM
Kd [2]: 0.36 nM
IC50 (read off the curve) [5]: 0.09 nM
IC50 (read off the curve) [6]: 0.03 nM
IC50 (read off the curve) [7]: 0.02 nM
IC50 (read off the curve) [8]: 0.2 nM
B3: 21B12, anti-PCSK9 huIgG4 (antibody, V domains shown)
VH: QVQLVQSGAEVKKPGASVKVSCKASGYTLTSYGISWVRQAPGQGLEWMGWVSFYNGNTNYAQKLQGRGTMTTDPSTSTAYMELRSLRSDDTAVYYCARGYGMDVWGQGTTVTVSS
VL: QSALTQPASVSGSPGQSITISCTGTSSDVGGYNSVSWYQQHPGKAPKLMIYEVSNRPSGVSNRFSGSKSGNTASLTISGLQAEDEADYYCNSYTSTSMVFGGGTKLTVLQ
